Patent US20150141335A1, “THERAPEUTIC USES OF FIBROBLAST GROWTH FACTOR 21 PROTEINS” (Eli Lilly and Company, published 2015)

Tests used:
human βKlotho = human βKlotho (human, UniProt Q86Z14); test: cell-based or functional assay
wild type mouse βKlotho = biological target: T1, wild type mouse βKlotho (mouse, UniProt Q99N32); test: cell-based or functional assay
T1 sequence: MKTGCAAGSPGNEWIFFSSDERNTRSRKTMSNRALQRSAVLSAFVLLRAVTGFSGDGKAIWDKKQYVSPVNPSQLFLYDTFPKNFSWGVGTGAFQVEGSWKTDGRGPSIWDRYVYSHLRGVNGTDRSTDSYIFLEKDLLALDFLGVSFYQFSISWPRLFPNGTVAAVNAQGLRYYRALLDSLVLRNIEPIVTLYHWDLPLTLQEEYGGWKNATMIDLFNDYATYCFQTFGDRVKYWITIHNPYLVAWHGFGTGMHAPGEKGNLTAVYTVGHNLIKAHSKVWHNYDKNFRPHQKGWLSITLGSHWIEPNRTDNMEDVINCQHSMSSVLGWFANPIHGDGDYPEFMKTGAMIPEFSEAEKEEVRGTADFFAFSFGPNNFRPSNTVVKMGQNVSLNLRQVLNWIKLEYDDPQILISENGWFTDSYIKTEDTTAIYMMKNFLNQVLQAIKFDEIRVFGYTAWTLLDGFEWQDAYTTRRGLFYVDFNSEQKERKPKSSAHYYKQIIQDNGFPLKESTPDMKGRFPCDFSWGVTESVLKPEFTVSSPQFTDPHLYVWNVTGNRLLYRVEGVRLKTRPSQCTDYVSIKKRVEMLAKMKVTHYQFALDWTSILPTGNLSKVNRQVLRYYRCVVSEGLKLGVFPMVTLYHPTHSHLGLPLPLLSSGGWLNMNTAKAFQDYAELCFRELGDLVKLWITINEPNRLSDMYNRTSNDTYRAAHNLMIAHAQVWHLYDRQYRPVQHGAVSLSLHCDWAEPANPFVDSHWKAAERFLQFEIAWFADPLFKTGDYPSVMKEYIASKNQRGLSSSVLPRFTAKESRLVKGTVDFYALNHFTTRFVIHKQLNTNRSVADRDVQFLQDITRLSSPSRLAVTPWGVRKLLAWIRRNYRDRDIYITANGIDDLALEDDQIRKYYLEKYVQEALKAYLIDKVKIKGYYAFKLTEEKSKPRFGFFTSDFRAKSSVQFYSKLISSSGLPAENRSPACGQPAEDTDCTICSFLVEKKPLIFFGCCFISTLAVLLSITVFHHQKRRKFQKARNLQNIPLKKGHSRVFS

SRE driven luciferase in 293-βKlotho-SRE luc cells, in vitro potency (EC50) (human βKlotho): 250 pM
glucose uptake (2-deoxy-D-(14C) glucose) in 3T3-L1-βKlotho fibroblasts, in vitro potency (EC50) (wild type mouse βKlotho): 26 pM
B1: FGF21 protein of SEQ ID NO: 1 (ligand)
chain: HPIPDSSPLLQFGGQVRQRYLYTDDAQQTECHLEIREDGTVGCAADQSPESLLQLKALKPGVIQILGVKTSRFLCQRPDGALYGSLHFDPEACSFREDLLEDGYNVYQSEAHGLPLHLPGDKSPHRKPAPRGPARFLPLPGLPPALPEPPGILAPQPPDVGSSDPLRLVEPSQLLSPSFLG
